Target: T1, C末端FLAGタグを有する切り捨てられたヒトRNF43 (Ba/F3 E12細胞に発現) (human, UniProt Q68DV7 24-237)
T1 construct: also called E12細胞株; Ba/F3 E12トランスフェクタント
T1 sequence: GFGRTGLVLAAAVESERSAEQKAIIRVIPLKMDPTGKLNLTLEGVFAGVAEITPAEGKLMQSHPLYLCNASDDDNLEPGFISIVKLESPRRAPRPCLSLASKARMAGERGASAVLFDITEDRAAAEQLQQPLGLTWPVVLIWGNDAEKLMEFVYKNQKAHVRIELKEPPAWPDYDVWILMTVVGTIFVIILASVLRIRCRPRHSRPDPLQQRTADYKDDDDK
Assay: flow cytometry on Ba/F3 E12 cells, antibody at 2.5 microg/ml, PE anti-human IgG detection

B1: 抗RNF43単一特異性抗体RNN0802 (antibody, human IgG1, kappa, N297A, V domains shown)
VH: QSLEESGGRLVTPGGSLTLTCRVSGFSLSNYDMSWVRQAPGKGLEWIGFITSSGRTYYASWAKGRFTISKTSTMVDLKITSPTTEDTATYFCARDFENDDSAMWGPGTLVTVSS
VL: DVVMTQTPSSVSAAVGGTVTINCQASQSVYDNNLAWYQQKPGQPPKLLIYKASKLASGVPSRFKGSGSGTEFTLTISDLECADAATYYCQSNYYSNTNGLGSFGGGTKVEIKR
notes: also called 単一特異的RNN0802; 単一特異的RNN0802(二価IgG)
binding result: binds

Source: JP2020075879A (dated 2020)
